Reference: the supplement of paper PMC10567573

B1: POMT2 (parent)
chain: VLRSRIRFIHLVTGCVLGSSGKVL
B2: ZNF263 (parent)
chain: FAHSSNLLRHQRIHTGERPYKCPE

Variants of: B1
Assay: protein stability index of a GFP-peptide fusion (GPS, HEK-293T) (PSI 1-6); higher = more stable
Details: c terminus: a fixed tail appended
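Note: lentivirally expressed fusions sorted by FACS into six bins by GFP to DsRed ratio, PSI derived from sequencing read proportions per bin multiplied by bin number.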

| Variant | protein stability index |
| --- | --- |
| ALRSRIRFIHLVTGCVLGSSGKVL | 2.38 |
| MLRSRIRFIHLVTGCVLGSSGKVL | 3.35 |
| LLRSRIRFIHLVTGCVLGSSGKVL | 2.15 |
| YLRSRIRFIHLVTGCVLGSSGKVL | 2.51 |
| ELRSRIRFIHLVTGCVLGSSGKVL | 2.61 |
| TLRSRIRFIHLVTGCVLGSSGKVL | 3 |
| RLRSRIRFIHLVTGCVLGSSGKVL | 1.96 |
| SLRSRIRFIHLVTGCVLGSSGKVL | 3.21 |
| PLRSRIRFIHLVTGCVLGSSGKVL | 3.01 |
| ILRSRIRFIHLVTGCVLGSSGKVL | 2.76 |
| DLRSRIRFIHLVTGCVLGSSGKVL | 2.88 |
| NLRSRIRFIHLVTGCVLGSSGKVL | 3.04 |
| GLRSRIRFIHLVTGCVLGSSGKVL | 1.39 |
| KLRSRIRFIHLVTGCVLGSSGKVL | 2.88 |
| WLRSRIRFIHLVTGCVLGSSGKVL | 1.4 |
| HLRSRIRFIHLVTGCVLGSSGKVL | 2.8 |
| VLFSRIRFIHLVTGCVLGSSGKVL | 2.27 |
| VLMSRIRFIHLVTGCVLGSSGKVL | 3.2 |
| VLNSRIRFIHLVTGCVLGSSGKVL | 2.43 |
| VLISRIRFIHLVTGCVLGSSGKVL | 3.85 |
| VLLSRIRFIHLVTGCVLGSSGKVL | 2.04 |

| Variant | protein stability index |
| --- | --- |
| VLGSRIRFIHLVTGCVLGSSGKVL | 3.29 |
| VLESRIRFIHLVTGCVLGSSGKVL | 2.31 |
| VLPSRIRFIHLVTGCVLGSSGKVL | 3.15 |
| VLHSRIRFIHLVTGCVLGSSGKVL | 2.39 |
| VLCSRIRFIHLVTGCVLGSSGKVL | 2.14 |
| VLASRIRFIHLVTGCVLGSSGKVL | 1.24 |
| VCRSRIRFIHLVTGCVLGSSGKVL | 2.48 |
| VRRSRIRFIHLVTGCVLGSSGKVL | 3.38 |
| VNRSRIRFIHLVTGCVLGSSGKVL | 2.4 |
| VFRSRIRFIHLVTGCVLGSSGKVL | 2.75 |
| VERSRIRFIHLVTGCVLGSSGKVL | 1.06 |
| VIRSRIRFIHLVTGCVLGSSGKVL | 2.71 |
| VSRSRIRFIHLVTGCVLGSSGKVL | 2.72 |
| VARSRIRFIHLVTGCVLGSSGKVL | 3.86 |
| VHRSRIRFIHLVTGCVLGSSGKVL | 2.81 |
| VVRSRIRFIHLVTGCVLGSSGKVL | 2.83 |
| VDRSRIRFIHLVTGCVLGSSGKVL | 3.93 |
| VQRSRIRFIHLVTGCVLGSSGKVL | 3.47 |
| VMRSRIRFIHLVTGCVLGSSGKVL | 2.49 |
| VKRSRIRFIHLVTGCVLGSSGKVL | 3.28 |
| VPRSRIRFIHLVTGCVLGSSGKVL | 1.76 |

Variants of: B2
Assay: as above
Details: c terminus: a fixed tail appended

| Variant | protein stability index |
| --- | --- |
| FAHSSNLLRHQRIHTGERPYKMPE | 2.26 |
| FAHSSNLLRHQRIHTGERPYKQPE | 2.9 |
| FAHSSNLLRHQRIHTGERPYKYPE | 2.44 |
| FAHSSNLLRHQRIHTGERPYKWPE | 2.08 |
| FAHSSNLLRHQRIHTGERPYKNPE | 2.95 |
| FAHSSNLLRHQRIHTGERPYKHPE | 2.8 |
| FAHSSNLLRHQRIHTGERPYKLPE | 2.25 |
| FAHSSNLLRHQRIHTGERPYKRPE | 2.29 |
| FAHSSNLLRHQRIHTGERPYKIPE | 2.06 |
| FAHSSNLLRHQRIHTGERPYKVPE | 2.13 |
| FAHSSNLLRHQRIHTGERPYKTPE | 2.03 |
| FAHSSNLLRHQRIHTGERPYKPPE | 2.58 |
| FAHSSNLLRHQRIHTGERPYKSPE | 3.48 |
| FAHSSNLLRHQRIHTGERPYKKPE | 2.15 |
| FAHSSNLLRHQRIHTGERPYKCGE | 2.82 |
| FAHSSNLLRHQRIHTGERPYKCSE | 2.41 |
| FAHSSNLLRHQRIHTGERPYKCYE | 2.5 |
| FAHSSNLLRHQRIHTGERPYKCNE | 2.56 |
| FAHSSNLLRHQRIHTGERPYKCFE | 2.11 |
| FAHSSNLLRHQRIHTGERPYKCKE | 2.52 |
| FAHSSNLLRHQRIHTGERPYKCME | 2.2 |
| FAHSSNLLRHQRIHTGERPYKCVE | 1.87 |
| FAHSSNLLRHQRIHTGERPYKCDE | 2.47 |
| FAHSSNLLRHQRIHTGERPYKCRE | 1.95 |
| FAHSSNLLRHQRIHTGERPYKCAE | 2.54 |
| FAHSSNLLRHQRIHTGERPYKCQE | 3 |

| Variant | protein stability index |
| --- | --- |
| FAHSSNLLRHQRIHTGERPYKCLE | 2.12 |
| FAHSSNLLRHQRIHTGERPYKCIE | 2.58 |
| FAHSSNLLRHQRIHTGERPYKCHE | 2.36 |
| FAHSSNLLRHQRIHTGERPYKCTE | 2.29 |
| FAHSSNLLRHQRIHTGERPYKCCE | 1.64 |
| FAHSSNLLRHQRIHTGERPYKCEE | 2.67 |
| FAHSSNLLRHQRIHTGERPYKCWE | 2.2 |
| FAHSSNLLRHQRIHTGERPYKCPS | 1.84 |
| FAHSSNLLRHQRIHTGERPYKCPD | 2.44 |
| FAHSSNLLRHQRIHTGERPYKCPM | 2.4 |
| FAHSSNLLRHQRIHTGERPYKCPI | 1.7 |
| FAHSSNLLRHQRIHTGERPYKCPF | 1.59 |
| FAHSSNLLRHQRIHTGERPYKCPH | 2.16 |
| FAHSSNLLRHQRIHTGERPYKCPG | 1.92 |
| FAHSSNLLRHQRIHTGERPYKCPL | 1.48 |
| FAHSSNLLRHQRIHTGERPYKCPA | 1.89 |
| FAHSSNLLRHQRIHTGERPYKCPP | 1.87 |
| FAHSSNLLRHQRIHTGERPYKCPR | 2.15 |
| FAHSSNLLRHQRIHTGERPYKCPQ | 2.33 |
| FAHSSNLLRHQRIHTGERPYKCPK | 2.46 |
| FAHSSNLLRHQRIHTGERPYKCPV | 1.56 |
| FAHSSNLLRHQRIHTGERPYKCPN | 1.88 |
| FAHSSNLLRHQRIHTGERPYKCPT | 1.87 |
| FAHSSNLLRHQRIHTGERPYKCPW | 2.72 |
| FAHSSNLLRHQRIHTGERPYKCPY | 2.28 |
| FAHSSNLLRHQRIHTGERPYKCPC | 1.56 |
